T1: FcγRIIa R (human, UniProt P12318 34-217)
T1 construct: extracellular domain; also called FcgRIIa R type; 2aR
T1 sequence (looked up): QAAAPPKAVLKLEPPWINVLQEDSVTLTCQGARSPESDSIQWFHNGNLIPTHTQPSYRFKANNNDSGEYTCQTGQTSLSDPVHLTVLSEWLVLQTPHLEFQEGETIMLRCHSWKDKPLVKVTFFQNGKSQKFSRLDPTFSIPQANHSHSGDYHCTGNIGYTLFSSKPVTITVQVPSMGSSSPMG

T2: FcγRIIb (human, UniProt P31994 43-217)
T2 construct: extracellular domain; also called FcgRIIb; 2b
T2 sequence (looked up): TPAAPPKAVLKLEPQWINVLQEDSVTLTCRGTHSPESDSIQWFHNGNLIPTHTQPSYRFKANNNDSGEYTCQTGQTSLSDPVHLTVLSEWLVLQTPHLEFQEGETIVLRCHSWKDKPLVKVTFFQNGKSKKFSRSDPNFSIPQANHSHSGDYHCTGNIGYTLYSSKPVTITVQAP

B1: GpH7-A5/GpH7-B3 variant S298_04F/GpL16-k0 (antibody, human IgG1, kappa)
heavy 1: not shown
heavy 2: not shown
light: DIVMTQSPLSLPVTPGEPASISCQASESLVHSNRNTYLHWYLQKPGQSPQLLIYKVSNRFSGVPDRFSGSGSGTDFTLKISRVEAEDVGVYYCSQNTHVPPTFGQGTKVEIERTVAAPSVFIFPPSDEQLKSGTASVVCLLNNFYPREAKVQWKVDNALQSGNSQESVTEQDSKDSTYSLSSTLTLSKADYEKHKVYACEVTHQGLSSPVTKSFNRGEC
notes: heterodimerized anti-glypican-3 IgG1; alteration in one H chain only; also called He Ab
B2: GpH7-B3 variant T335_04F/GpL16-k0 (antibody, human IgG1, kappa)
heavy: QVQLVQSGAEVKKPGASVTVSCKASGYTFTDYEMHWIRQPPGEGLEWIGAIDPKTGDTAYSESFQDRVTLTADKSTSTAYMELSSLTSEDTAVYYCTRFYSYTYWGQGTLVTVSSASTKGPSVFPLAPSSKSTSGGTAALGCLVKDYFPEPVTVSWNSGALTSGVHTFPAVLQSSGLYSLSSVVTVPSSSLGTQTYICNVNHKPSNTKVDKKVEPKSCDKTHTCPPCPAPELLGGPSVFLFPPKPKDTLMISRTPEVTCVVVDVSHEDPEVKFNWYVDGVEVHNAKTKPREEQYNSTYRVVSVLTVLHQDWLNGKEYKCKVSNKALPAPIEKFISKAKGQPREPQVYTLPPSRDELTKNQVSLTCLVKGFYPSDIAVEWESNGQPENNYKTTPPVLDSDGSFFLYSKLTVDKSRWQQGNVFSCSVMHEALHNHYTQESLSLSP
light: DIVMTQSPLSLPVTPGEPASISCQASESLVHSNRNTYLHWYLQKPGQSPQLLIYKVSNRFSGVPDRFSGSGSGTDFTLKISRVEAEDVGVYYCSQNTHVPPTFGQGTKVEIERTVAAPSVFIFPPSDEQLKSGTASVVCLLNNFYPREAKVQWKVDNALQSGNSQESVTEQDSKDSTYSLSSTLTLSKADYEKHKVYACEVTHQGLSSPVTKSFNRGEC
notes: homodimerized IgG1, mutation in both H chains; also called Ho Ab
B3: GpH7-A5/GpH7-B3 variant Y296_11K/GpL16-k0 (antibody, human IgG1, kappa)
heavy 1: not shown
heavy 2: not shown
light: DIVMTQSPLSLPVTPGEPASISCQASESLVHSNRNTYLHWYLQKPGQSPQLLIYKVSNRFSGVPDRFSGSGSGTDFTLKISRVEAEDVGVYYCSQNTHVPPTFGQGTKVEIERTVAAPSVFIFPPSDEQLKSGTASVVCLLNNFYPREAKVQWKVDNALQSGNSQESVTEQDSKDSTYSLSSTLTLSKADYEKHKVYACEVTHQGLSSPVTKSFNRGEC
notes: as for B1
B4: GpH7-A5/GpH7-B3 variant S298_05P/GpL16-k0 (antibody, human IgG1, kappa)
heavy 1: not shown
heavy 2: not shown
light: DIVMTQSPLSLPVTPGEPASISCQASESLVHSNRNTYLHWYLQKPGQSPQLLIYKVSNRFSGVPDRFSGSGSGTDFTLKISRVEAEDVGVYYCSQNTHVPPTFGQGTKVEIERTVAAPSVFIFPPSDEQLKSGTASVVCLLNNFYPREAKVQWKVDNALQSGNSQESVTEQDSKDSTYSLSSTLTLSKADYEKHKVYACEVTHQGLSSPVTKSFNRGEC
notes: as for B1
B5: GpH7-A5/GpH7-B3 variant V266_16H/GpL16-k0 (antibody, human IgG1, kappa)
heavy 1: not shown
heavy 2: not shown
light: DIVMTQSPLSLPVTPGEPASISCQASESLVHSNRNTYLHWYLQKPGQSPQLLIYKVSNRFSGVPDRFSGSGSGTDFTLKISRVEAEDVGVYYCSQNTHVPPTFGQGTKVEIERTVAAPSVFIFPPSDEQLKSGTASVVCLLNNFYPREAKVQWKVDNALQSGNSQESVTEQDSKDSTYSLSSTLTLSKADYEKHKVYACEVTHQGLSSPVTKSFNRGEC
notes: as for B1
B6: GpH7-B3 variant A330_10E/GpL16-k0 (antibody, human IgG1, kappa)
heavy: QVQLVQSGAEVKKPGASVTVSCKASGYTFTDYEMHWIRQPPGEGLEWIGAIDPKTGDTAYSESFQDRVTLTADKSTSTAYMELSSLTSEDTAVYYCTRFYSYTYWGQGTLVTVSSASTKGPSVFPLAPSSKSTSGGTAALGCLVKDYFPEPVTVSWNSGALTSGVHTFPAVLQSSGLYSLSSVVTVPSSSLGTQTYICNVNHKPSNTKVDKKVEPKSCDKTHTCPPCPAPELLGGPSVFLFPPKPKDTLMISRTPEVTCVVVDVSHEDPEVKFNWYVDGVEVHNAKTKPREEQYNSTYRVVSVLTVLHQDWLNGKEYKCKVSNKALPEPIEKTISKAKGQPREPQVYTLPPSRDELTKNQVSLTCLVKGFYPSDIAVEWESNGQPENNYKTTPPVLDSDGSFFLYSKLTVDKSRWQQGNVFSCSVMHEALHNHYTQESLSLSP
light: DIVMTQSPLSLPVTPGEPASISCQASESLVHSNRNTYLHWYLQKPGQSPQLLIYKVSNRFSGVPDRFSGSGSGTDFTLKISRVEAEDVGVYYCSQNTHVPPTFGQGTKVEIERTVAAPSVFIFPPSDEQLKSGTASVVCLLNNFYPREAKVQWKVDNALQSGNSQESVTEQDSKDSTYSLSSTLTLSKADYEKHKVYACEVTHQGLSSPVTKSFNRGEC
notes: as for B2
B7: GpH7-A5/GpH7-B3 variant S298_09D/GpL16-k0 (antibody, human IgG1, kappa)
heavy 1: not shown
heavy 2: not shown
light: DIVMTQSPLSLPVTPGEPASISCQASESLVHSNRNTYLHWYLQKPGQSPQLLIYKVSNRFSGVPDRFSGSGSGTDFTLKISRVEAEDVGVYYCSQNTHVPPTFGQGTKVEIERTVAAPSVFIFPPSDEQLKSGTASVVCLLNNFYPREAKVQWKVDNALQSGNSQESVTEQDSKDSTYSLSSTLTLSKADYEKHKVYACEVTHQGLSSPVTKSFNRGEC
notes: as for B1
B8: GpH7-A5/GpH7-B3 variant Y296_05P/GpL16-k0 (antibody, human IgG1, kappa)
heavy 1: not shown
heavy 2: not shown
light: DIVMTQSPLSLPVTPGEPASISCQASESLVHSNRNTYLHWYLQKPGQSPQLLIYKVSNRFSGVPDRFSGSGSGTDFTLKISRVEAEDVGVYYCSQNTHVPPTFGQGTKVEIERTVAAPSVFIFPPSDEQLKSGTASVVCLLNNFYPREAKVQWKVDNALQSGNSQESVTEQDSKDSTYSLSSTLTLSKADYEKHKVYACEVTHQGLSSPVTKSFNRGEC
notes: as for B1
B9: GpH7-B3 variant A330_04F/GpL16-k0 (antibody, human IgG1, kappa)
heavy: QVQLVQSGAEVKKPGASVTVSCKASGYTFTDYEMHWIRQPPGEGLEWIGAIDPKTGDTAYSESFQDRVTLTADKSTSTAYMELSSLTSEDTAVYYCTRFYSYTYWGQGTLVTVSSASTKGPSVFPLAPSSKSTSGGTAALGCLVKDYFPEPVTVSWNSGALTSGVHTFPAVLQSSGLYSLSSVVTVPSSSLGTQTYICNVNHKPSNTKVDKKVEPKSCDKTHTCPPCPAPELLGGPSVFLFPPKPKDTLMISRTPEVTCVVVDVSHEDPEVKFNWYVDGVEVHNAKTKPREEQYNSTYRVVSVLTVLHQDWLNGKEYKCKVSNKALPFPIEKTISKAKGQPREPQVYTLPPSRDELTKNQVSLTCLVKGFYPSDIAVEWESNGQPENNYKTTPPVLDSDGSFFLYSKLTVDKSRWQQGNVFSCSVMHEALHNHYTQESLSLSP
light: DIVMTQSPLSLPVTPGEPASISCQASESLVHSNRNTYLHWYLQKPGQSPQLLIYKVSNRFSGVPDRFSGSGSGTDFTLKISRVEAEDVGVYYCSQNTHVPPTFGQGTKVEIERTVAAPSVFIFPPSDEQLKSGTASVVCLLNNFYPREAKVQWKVDNALQSGNSQESVTEQDSKDSTYSLSSTLTLSKADYEKHKVYACEVTHQGLSSPVTKSFNRGEC
notes: as for B2
B10: GpH7-B3 variant A330_20W/GpL16-k0 (antibody, human IgG1, kappa)
heavy: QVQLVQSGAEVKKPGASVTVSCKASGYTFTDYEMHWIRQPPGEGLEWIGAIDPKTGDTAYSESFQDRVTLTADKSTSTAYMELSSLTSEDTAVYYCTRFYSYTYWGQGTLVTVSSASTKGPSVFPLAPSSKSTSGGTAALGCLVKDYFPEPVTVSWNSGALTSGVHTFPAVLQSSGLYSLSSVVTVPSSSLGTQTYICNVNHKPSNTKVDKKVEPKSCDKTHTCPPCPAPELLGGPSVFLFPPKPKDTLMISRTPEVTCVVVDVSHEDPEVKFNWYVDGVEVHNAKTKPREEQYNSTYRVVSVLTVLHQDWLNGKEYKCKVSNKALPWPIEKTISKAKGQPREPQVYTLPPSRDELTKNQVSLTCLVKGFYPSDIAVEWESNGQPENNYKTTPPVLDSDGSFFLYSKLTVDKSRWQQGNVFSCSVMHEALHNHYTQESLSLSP
light: DIVMTQSPLSLPVTPGEPASISCQASESLVHSNRNTYLHWYLQKPGQSPQLLIYKVSNRFSGVPDRFSGSGSGTDFTLKISRVEAEDVGVYYCSQNTHVPPTFGQGTKVEIERTVAAPSVFIFPPSDEQLKSGTASVVCLLNNFYPREAKVQWKVDNALQSGNSQESVTEQDSKDSTYSLSSTLTLSKADYEKHKVYACEVTHQGLSSPVTKSFNRGEC
notes: as for B2
B11: GpH7-B3 variant A330_01G/GpL16-k0 (antibody, human IgG1, kappa)
heavy: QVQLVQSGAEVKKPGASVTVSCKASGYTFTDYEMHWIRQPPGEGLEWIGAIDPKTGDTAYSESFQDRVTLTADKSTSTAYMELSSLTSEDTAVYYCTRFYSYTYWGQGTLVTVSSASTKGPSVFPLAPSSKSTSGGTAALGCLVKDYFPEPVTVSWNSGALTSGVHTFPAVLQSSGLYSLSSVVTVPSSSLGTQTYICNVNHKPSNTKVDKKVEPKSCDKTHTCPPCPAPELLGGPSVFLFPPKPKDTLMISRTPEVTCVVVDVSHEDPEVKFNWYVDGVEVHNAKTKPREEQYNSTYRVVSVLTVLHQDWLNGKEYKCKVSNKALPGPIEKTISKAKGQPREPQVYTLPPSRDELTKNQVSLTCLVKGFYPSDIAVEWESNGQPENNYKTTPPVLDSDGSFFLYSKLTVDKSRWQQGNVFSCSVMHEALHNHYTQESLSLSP
light: DIVMTQSPLSLPVTPGEPASISCQASESLVHSNRNTYLHWYLQKPGQSPQLLIYKVSNRFSGVPDRFSGSGSGTDFTLKISRVEAEDVGVYYCSQNTHVPPTFGQGTKVEIERTVAAPSVFIFPPSDEQLKSGTASVVCLLNNFYPREAKVQWKVDNALQSGNSQESVTEQDSKDSTYSLSSTLTLSKADYEKHKVYACEVTHQGLSSPVTKSFNRGEC
notes: as for B2
B12: GpH7-B3 variant D265_10E/GpL16-k0 (antibody, human IgG1, kappa)
heavy: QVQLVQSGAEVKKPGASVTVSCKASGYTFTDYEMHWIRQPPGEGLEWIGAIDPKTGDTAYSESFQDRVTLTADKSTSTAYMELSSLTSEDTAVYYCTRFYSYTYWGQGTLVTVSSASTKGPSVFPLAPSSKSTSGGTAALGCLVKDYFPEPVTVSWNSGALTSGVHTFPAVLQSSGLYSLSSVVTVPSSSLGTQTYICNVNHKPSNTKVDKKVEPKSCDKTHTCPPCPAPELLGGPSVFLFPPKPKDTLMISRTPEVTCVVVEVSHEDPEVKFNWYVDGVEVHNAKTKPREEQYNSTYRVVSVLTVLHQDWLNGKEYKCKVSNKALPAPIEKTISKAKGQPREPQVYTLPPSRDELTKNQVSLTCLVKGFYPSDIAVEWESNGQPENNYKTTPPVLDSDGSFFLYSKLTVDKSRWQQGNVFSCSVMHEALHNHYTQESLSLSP
light: DIVMTQSPLSLPVTPGEPASISCQASESLVHSNRNTYLHWYLQKPGQSPQLLIYKVSNRFSGVPDRFSGSGSGTDFTLKISRVEAEDVGVYYCSQNTHVPPTFGQGTKVEIERTVAAPSVFIFPPSDEQLKSGTASVVCLLNNFYPREAKVQWKVDNALQSGNSQESVTEQDSKDSTYSLSSTLTLSKADYEKHKVYACEVTHQGLSSPVTKSFNRGEC
notes: as for B2
B13: GpH7-A5/GpH7-B3 variant Y296_12R/GpL16-k0 (antibody, human IgG1, kappa)
heavy 1: not shown
heavy 2: not shown
light: DIVMTQSPLSLPVTPGEPASISCQASESLVHSNRNTYLHWYLQKPGQSPQLLIYKVSNRFSGVPDRFSGSGSGTDFTLKISRVEAEDVGVYYCSQNTHVPPTFGQGTKVEIERTVAAPSVFIFPPSDEQLKSGTASVVCLLNNFYPREAKVQWKVDNALQSGNSQESVTEQDSKDSTYSLSSTLTLSKADYEKHKVYACEVTHQGLSSPVTKSFNRGEC
notes: as for B1
B14: GpH7-B3 variant A330_19Q/GpL16-k0 (antibody, human IgG1, kappa)
heavy: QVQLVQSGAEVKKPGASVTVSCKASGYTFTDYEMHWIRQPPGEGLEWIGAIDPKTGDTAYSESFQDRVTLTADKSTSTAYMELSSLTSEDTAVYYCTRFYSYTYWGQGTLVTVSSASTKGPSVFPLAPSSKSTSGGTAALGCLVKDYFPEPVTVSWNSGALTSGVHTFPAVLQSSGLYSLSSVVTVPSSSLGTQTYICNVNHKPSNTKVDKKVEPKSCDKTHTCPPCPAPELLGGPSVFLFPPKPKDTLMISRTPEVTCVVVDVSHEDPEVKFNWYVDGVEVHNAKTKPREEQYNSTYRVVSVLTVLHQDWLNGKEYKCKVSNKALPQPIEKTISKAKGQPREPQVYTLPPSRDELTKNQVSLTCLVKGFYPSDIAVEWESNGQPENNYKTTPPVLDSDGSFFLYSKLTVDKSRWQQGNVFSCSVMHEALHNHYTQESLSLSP
light: DIVMTQSPLSLPVTPGEPASISCQASESLVHSNRNTYLHWYLQKPGQSPQLLIYKVSNRFSGVPDRFSGSGSGTDFTLKISRVEAEDVGVYYCSQNTHVPPTFGQGTKVEIERTVAAPSVFIFPPSDEQLKSGTASVVCLLNNFYPREAKVQWKVDNALQSGNSQESVTEQDSKDSTYSLSSTLTLSKADYEKHKVYACEVTHQGLSSPVTKSFNRGEC
notes: as for B2
B15: GpH7-B3 variant H268_01G/GpL16-k0 (antibody, human IgG1, kappa)
heavy: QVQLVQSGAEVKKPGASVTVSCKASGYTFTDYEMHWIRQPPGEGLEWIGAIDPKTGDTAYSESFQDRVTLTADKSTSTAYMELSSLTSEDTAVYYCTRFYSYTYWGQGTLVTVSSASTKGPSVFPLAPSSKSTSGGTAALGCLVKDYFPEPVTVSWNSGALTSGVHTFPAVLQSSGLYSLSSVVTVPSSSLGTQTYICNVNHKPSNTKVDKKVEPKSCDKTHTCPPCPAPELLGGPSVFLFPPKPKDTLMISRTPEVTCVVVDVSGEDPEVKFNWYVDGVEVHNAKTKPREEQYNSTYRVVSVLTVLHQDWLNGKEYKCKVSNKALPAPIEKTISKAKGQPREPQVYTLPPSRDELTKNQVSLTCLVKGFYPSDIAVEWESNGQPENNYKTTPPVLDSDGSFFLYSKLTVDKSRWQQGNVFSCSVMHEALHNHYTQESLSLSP
light: DIVMTQSPLSLPVTPGEPASISCQASESLVHSNRNTYLHWYLQKPGQSPQLLIYKVSNRFSGVPDRFSGSGSGTDFTLKISRVEAEDVGVYYCSQNTHVPPTFGQGTKVEIERTVAAPSVFIFPPSDEQLKSGTASVVCLLNNFYPREAKVQWKVDNALQSGNSQESVTEQDSKDSTYSLSSTLTLSKADYEKHKVYACEVTHQGLSSPVTKSFNRGEC
notes: as for B2
B16: GpH7-A5/GpH7-B3 variant Y296_01G/GpL16-k0 (antibody, human IgG1, kappa)
heavy 1: not shown
heavy 2: not shown
light: DIVMTQSPLSLPVTPGEPASISCQASESLVHSNRNTYLHWYLQKPGQSPQLLIYKVSNRFSGVPDRFSGSGSGTDFTLKISRVEAEDVGVYYCSQNTHVPPTFGQGTKVEIERTVAAPSVFIFPPSDEQLKSGTASVVCLLNNFYPREAKVQWKVDNALQSGNSQESVTEQDSKDSTYSLSSTLTLSKADYEKHKVYACEVTHQGLSSPVTKSFNRGEC
notes: as for B1
B17: GpH7-A5/GpH7-B3 variant Y296_03V/GpL16-k0 (antibody, human IgG1, kappa)
heavy 1: not shown
heavy 2: not shown
light: DIVMTQSPLSLPVTPGEPASISCQASESLVHSNRNTYLHWYLQKPGQSPQLLIYKVSNRFSGVPDRFSGSGSGTDFTLKISRVEAEDVGVYYCSQNTHVPPTFGQGTKVEIERTVAAPSVFIFPPSDEQLKSGTASVVCLLNNFYPREAKVQWKVDNALQSGNSQESVTEQDSKDSTYSLSSTLTLSKADYEKHKVYACEVTHQGLSSPVTKSFNRGEC
notes: as for B1
B18: GpH7-A5/GpH7-B3 variant S298_07I/GpL16-k0 (antibody, human IgG1, kappa)
heavy 1: not shown
heavy 2: not shown
light: DIVMTQSPLSLPVTPGEPASISCQASESLVHSNRNTYLHWYLQKPGQSPQLLIYKVSNRFSGVPDRFSGSGSGTDFTLKISRVEAEDVGVYYCSQNTHVPPTFGQGTKVEIERTVAAPSVFIFPPSDEQLKSGTASVVCLLNNFYPREAKVQWKVDNALQSGNSQESVTEQDSKDSTYSLSSTLTLSKADYEKHKVYACEVTHQGLSSPVTKSFNRGEC
notes: as for B1

Key:
FcγRIIa R [1] = target: T1, FcγRIIa R; experiment: SPR (Biacore), captured antibody, FcγR as analyte; relative binding, control GpH7-A5/GpH7-B3/GpL16-k0 = 100
FcγRIIb = target: T2, FcγRIIb; experiment: as above
FcγRIIa R [2] = target: T1, FcγRIIa R; experiment: SPR (Biacore); He/Con_2aR divided by He/Con_2b (FcγRIIa R over FcγRIIb)
FcγRIa = target: T3, FcγRIa (human, UniProt P12314 16-292); experiment: SPR (Biacore), captured antibody, FcγRIa analyte; relative to GpH7-B3/GpL16-k0
T3 construct: extracellular domain; soluble His-tagged extracellular domain expressed in FreeStyle293 cells, used as analyte in Biacore; also called FcgRI; CD64
T3 sequence (P12314 16-292): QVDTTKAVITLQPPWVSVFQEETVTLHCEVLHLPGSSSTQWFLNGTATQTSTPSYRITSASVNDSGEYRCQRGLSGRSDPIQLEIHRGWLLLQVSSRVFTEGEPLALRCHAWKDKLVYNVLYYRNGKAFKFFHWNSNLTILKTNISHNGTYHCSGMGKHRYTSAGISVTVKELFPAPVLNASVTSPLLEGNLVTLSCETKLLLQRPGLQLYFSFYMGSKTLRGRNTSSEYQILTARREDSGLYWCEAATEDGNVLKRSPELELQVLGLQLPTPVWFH

Binder	He/Con_2aR (FcγRIIa R [1]) [control = 100]	He/Con_2b (FcγRIIb) [control = 100]	He_2aR/2b (IIaR/IIb) (FcγRIIa R [2]) [ratio]	Ho/Con_1a (FcγRIa)
B1	84	65.4	1.29	
B2				105 relative, control = 100
B3	94.3	72.8	1.3	
B4	16	11.9	1.34	
B5	76.5	57.2	1.34	
B6				108 relative, control = 100
B7	67.8	48.3	1.4	
B8	47.7	36.6	1.3	
B9				107 relative, control = 100
B10				108 relative, control = 100
B11				106 relative, control = 100
B12				103 relative, control = 100
B13	99.6	79.5	1.25	
B14				106 relative, control = 100
B15				108 relative, control = 100
B16	95.8	79.3	1.21	
B17	96.2	79.3	1.21	
B18	90.1	70.6	1.28	

Source: patent US20150344570A1 (published 2015)
